{
  "source": "patent US20240092841A1",
  "key": {"[1]": {"molecular_target": "Integrin alpha-3 (human) (UniProt P26006)", "assay": "co-IP with agarose-bound AvFc from H460 whole-cell lysate, mass spectrometry"}, "[2]": {"molecular_target": "Neutral amino acid transporter B (0) (human) (UniProt Q15758)", "assay": "co-IP with agarose-bound AvFc from H460 whole-cell lysate, mass spectrometry"}, "[3]": {"molecular_target": "Laminin subunit gamma-1 (human) (UniProt P11047)", "sequence (P11047 34-1609 limits assumed)": "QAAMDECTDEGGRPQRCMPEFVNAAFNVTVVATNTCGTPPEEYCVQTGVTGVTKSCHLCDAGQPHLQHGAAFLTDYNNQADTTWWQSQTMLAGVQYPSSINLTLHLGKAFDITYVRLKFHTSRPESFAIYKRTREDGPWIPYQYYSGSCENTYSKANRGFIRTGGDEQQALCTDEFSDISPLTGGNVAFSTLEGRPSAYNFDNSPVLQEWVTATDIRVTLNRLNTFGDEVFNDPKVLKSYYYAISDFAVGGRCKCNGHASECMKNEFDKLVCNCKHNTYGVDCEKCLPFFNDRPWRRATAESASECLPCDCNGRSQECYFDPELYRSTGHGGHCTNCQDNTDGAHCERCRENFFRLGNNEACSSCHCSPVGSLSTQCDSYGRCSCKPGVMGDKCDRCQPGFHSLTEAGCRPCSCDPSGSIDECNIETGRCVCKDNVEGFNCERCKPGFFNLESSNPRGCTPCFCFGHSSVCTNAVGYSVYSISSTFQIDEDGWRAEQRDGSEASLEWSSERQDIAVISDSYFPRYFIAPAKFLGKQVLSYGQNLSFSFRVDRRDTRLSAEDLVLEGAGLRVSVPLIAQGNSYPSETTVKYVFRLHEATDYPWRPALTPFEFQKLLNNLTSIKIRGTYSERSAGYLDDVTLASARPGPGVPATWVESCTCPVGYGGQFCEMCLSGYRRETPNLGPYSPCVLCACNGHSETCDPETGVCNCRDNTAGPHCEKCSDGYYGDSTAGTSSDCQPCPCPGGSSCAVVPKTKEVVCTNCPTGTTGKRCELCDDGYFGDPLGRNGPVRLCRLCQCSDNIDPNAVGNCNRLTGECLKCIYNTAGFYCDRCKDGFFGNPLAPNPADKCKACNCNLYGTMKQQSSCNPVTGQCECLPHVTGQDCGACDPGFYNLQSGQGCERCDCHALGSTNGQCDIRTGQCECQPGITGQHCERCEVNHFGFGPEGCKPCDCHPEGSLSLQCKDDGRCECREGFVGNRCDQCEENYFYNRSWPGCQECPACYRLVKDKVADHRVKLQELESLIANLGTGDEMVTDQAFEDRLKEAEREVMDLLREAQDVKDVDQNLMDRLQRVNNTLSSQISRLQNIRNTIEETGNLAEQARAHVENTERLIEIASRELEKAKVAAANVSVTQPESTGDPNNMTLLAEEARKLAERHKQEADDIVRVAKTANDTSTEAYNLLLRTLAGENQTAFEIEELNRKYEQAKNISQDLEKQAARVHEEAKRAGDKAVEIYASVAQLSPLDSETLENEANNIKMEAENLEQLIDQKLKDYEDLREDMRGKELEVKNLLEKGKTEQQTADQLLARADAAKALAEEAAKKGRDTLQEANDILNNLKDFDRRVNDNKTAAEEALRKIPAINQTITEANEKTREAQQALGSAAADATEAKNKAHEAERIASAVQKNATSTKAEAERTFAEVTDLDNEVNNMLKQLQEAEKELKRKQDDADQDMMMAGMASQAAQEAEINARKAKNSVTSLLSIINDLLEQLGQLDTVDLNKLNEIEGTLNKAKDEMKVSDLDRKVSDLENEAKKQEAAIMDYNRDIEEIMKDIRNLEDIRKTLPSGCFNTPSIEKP", "assay": "co-IP with agarose-bound AvFc from H460 whole-cell lysate, mass spectrometry"}, "[4]": {"molecular_target": "Urokinase plasminogen activator surface receptor (human) (UniProt Q03405)", "assay": "co-IP with agarose-bound AvFc from H460 whole-cell lysate, mass spectrometry"}, "[5]": {"molecular_target": "Cation-dependent mannose-6-phosphate receptor (human) (UniProt P20645)", "sequence (P20645 27-277 limits assumed)": "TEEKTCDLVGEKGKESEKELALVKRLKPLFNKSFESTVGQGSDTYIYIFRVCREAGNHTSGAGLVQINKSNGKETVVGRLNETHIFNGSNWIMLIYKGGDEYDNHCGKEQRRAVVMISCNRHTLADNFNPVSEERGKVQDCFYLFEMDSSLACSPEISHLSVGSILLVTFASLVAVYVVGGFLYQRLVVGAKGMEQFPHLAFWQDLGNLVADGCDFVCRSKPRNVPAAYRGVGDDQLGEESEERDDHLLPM", "assay": "co-IP with agarose-bound AvFc from H460 whole-cell lysate, mass spectrometry"}, "[6]": {"molecular_target": "Epidermal growth factor receptor (human) (UniProt P00533)", "assay": "co-IP with agarose-bound AvFc from H460 whole-cell lysate, mass spectrometry"}, "[7]": {"molecular_target": "Renin receptor (human) (UniProt O75787)", "assay": "co-IP with agarose-bound AvFc from H460 whole-cell lysate, mass spectrometry"}, "[8]": {"molecular_target": "Tetratricopeptide repeat protein 13 (Q8NBP0-2) (human) (UniProt Q8NBP0)", "sequence (Q8NBP0 other isoform, or with tags, fused parts or gaps limits assumed)": "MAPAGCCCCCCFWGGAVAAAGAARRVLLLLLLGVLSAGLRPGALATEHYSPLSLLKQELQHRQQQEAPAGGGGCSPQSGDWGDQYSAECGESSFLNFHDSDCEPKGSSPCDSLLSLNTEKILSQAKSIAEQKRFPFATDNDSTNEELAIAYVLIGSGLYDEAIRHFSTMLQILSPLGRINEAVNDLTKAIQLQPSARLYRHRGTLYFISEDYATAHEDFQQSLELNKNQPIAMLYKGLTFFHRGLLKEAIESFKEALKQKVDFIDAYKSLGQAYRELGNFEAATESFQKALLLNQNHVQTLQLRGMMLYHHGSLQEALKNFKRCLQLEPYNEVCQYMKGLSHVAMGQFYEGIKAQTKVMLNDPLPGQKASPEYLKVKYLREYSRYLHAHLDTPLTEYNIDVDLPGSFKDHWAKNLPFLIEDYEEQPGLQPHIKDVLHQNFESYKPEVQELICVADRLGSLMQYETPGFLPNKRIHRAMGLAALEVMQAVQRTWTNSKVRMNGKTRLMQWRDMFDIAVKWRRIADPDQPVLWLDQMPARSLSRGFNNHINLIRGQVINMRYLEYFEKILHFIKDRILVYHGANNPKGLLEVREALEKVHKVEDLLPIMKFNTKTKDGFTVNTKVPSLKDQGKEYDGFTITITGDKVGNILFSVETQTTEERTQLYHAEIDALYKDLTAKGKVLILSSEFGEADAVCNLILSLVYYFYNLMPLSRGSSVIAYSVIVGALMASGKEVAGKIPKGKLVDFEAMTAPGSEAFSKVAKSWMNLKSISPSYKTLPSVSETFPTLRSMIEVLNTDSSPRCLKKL", "assay": "co-IP with agarose-bound AvFc from H460 whole-cell lysate, mass spectrometry"}, "[9]": {"molecular_target": "Galectin-3-binding protein (human) (UniProt Q08380)", "assay": "co-IP with agarose-bound AvFc from H460 whole-cell lysate, mass spectrometry"}, "[10]": {"molecular_target": "Neural cell adhesion molecule L1 (human) (UniProt P32004)", "assay": "co-IP with agarose-bound AvFc from H460 whole-cell lysate, mass spectrometry"}, "[11]": {"molecular_target": "Laminin subunit alpha-1 (human) (UniProt P25391)", "assay": "co-IP with agarose-bound AvFc from H460 whole-cell lysate, mass spectrometry"}, "[12]": {"molecular_target": "Secretory carrier-associated membrane protein 3 (human) (UniProt O14828)", "assay": "co-IP with agarose-bound AvFc from H460 whole-cell lysate, mass spectrometry"}, "[13]": {"molecular_target": "Integrin alpha-V (human) (UniProt P06756)", "assay": "co-IP with agarose-bound AvFc from H460 whole-cell lysate, mass spectrometry"}, "[14]": {"molecular_target": "Integrin alpha-1 (human) (UniProt P56199)", "assay": "co-IP with agarose-bound AvFc from H460 whole-cell lysate, mass spectrometry"}, "[15]": {"molecular_target": "4F2 cell-surface antigen heavy chain (human) (UniProt P08195)", "sequence (P08195 103-630 limits assumed)": "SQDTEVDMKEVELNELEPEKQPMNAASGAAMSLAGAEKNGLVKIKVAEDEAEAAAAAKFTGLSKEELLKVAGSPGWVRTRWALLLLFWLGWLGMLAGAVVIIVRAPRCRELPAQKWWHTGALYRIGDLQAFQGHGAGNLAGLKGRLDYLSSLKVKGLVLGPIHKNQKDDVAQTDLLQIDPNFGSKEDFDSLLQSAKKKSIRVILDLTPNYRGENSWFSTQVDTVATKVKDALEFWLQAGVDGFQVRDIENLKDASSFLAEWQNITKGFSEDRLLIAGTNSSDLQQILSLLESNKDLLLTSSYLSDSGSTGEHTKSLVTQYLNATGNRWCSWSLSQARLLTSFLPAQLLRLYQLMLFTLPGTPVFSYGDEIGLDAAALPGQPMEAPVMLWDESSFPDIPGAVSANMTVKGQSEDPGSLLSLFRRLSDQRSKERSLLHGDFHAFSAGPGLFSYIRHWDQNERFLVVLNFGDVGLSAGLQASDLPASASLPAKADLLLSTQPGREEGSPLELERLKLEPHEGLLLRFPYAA", "assay": "co-IP with agarose-bound AvFc from H460 whole-cell lysate, mass spectrometry"}, "[16]": {"molecular_target": "Magnesium transporter protein 1 (human) (UniProt Q9H0U3)", "sequence (Q9H0U3 30-335 limits assumed)": "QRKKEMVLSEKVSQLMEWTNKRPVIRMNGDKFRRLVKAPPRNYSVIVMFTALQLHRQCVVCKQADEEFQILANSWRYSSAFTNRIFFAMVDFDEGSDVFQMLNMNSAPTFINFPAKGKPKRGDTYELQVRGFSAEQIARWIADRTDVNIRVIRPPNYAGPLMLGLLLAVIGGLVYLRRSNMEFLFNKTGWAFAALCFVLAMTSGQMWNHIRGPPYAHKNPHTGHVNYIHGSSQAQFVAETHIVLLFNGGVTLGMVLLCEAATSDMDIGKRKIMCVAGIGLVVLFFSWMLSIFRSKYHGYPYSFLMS", "assay": "co-IP with agarose-bound AvFc from H460 whole-cell lysate, mass spectrometry"}, "[17]": {"molecular_target": "Metal transporter CNNM4 (human) (UniProt Q6P4Q7)", "assay": "co-IP with agarose-bound AvFc from H460 whole-cell lysate, mass spectrometry"}, "[18]": {"molecular_target": "Agrin (human) (UniProt O00468)", "assay": "co-IP with agarose-bound AvFc from H460 whole-cell lysate, mass spectrometry"}, "[19]": {"molecular_target": "Laminin subunit beta-1 (human) (UniProt P07942)", "assay": "co-IP with agarose-bound AvFc from H460 whole-cell lysate, mass spectrometry"}, "[20]": {"molecular_target": "Cell cycle control protein 50A (human) (UniProt Q9NV96)", "assay": "co-IP with agarose-bound AvFc from H460 whole-cell lysate, mass spectrometry"}, "[21]": {"molecular_target": "Scavenger receptor class B member 1 (human) (UniProt Q8WTV0)", "assay": "co-IP with agarose-bound AvFc from H460 whole-cell lysate, mass spectrometry"}, "[22]": {"molecular_target": "Sortilin-related receptor (human) (UniProt Q92673)", "assay": "co-IP with agarose-bound AvFc from H460 whole-cell lysate, mass spectrometry"}, "[23]": {"molecular_target": "Disintegrin and metalloproteinase domain-containing protein 9 (human) (UniProt Q13443)", "sequence (Q13443 29-819 limits assumed)": "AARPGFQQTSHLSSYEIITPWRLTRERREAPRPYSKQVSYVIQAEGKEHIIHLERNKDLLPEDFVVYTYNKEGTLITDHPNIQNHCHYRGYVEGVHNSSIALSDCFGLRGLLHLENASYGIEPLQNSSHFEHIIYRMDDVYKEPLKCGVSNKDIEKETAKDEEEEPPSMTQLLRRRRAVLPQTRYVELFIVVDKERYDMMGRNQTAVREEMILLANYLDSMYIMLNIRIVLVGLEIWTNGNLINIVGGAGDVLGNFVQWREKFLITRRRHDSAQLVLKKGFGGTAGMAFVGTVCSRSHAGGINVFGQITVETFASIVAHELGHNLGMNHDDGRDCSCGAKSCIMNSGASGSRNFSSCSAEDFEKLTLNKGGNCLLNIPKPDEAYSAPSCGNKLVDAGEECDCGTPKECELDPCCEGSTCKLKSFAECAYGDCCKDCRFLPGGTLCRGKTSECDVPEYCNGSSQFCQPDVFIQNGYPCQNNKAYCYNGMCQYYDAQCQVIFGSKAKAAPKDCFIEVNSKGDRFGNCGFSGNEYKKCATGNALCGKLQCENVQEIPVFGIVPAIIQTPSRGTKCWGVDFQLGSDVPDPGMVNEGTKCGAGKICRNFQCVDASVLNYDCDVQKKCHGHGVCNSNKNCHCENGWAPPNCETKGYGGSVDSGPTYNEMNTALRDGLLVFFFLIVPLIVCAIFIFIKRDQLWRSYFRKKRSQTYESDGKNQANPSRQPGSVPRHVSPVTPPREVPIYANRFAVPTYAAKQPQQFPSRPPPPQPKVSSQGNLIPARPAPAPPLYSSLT", "assay": "co-IP with agarose-bound AvFc from H460 whole-cell lysate, mass spectrometry"}, "[24]": {"molecular_target": "Laminin subunit gamma-1 (human) (UniProt P11047)", "assay": "co-IP with agarose-bound AvFc from A549 whole-cell lysate, mass spectrometry"}, "[25]": {"molecular_target": "Transmembrane protein 106B (human) (UniProt Q9NUM4)", "assay": "co-IP with agarose-bound AvFc from A549 whole-cell lysate, mass spectrometry"}, "[26]": {"molecular_target": "Exportin-1 (human) (UniProt O14980)", "assay": "co-IP with agarose-bound AvFc from A549 whole-cell lysate, mass spectrometry"}, "[27]": {"molecular_target": "Cation-dependent mannose-6-phosphate receptor (human) (UniProt P20645)", "assay": "co-IP with agarose-bound AvFc from A549 whole-cell lysate, mass spectrometry"}, "[28]": {"molecular_target": "Disintegrin and metalloproteinase domain-containing protein 17 (human) (UniProt P78536)", "sequence (P78536 215-824 limits assumed)": "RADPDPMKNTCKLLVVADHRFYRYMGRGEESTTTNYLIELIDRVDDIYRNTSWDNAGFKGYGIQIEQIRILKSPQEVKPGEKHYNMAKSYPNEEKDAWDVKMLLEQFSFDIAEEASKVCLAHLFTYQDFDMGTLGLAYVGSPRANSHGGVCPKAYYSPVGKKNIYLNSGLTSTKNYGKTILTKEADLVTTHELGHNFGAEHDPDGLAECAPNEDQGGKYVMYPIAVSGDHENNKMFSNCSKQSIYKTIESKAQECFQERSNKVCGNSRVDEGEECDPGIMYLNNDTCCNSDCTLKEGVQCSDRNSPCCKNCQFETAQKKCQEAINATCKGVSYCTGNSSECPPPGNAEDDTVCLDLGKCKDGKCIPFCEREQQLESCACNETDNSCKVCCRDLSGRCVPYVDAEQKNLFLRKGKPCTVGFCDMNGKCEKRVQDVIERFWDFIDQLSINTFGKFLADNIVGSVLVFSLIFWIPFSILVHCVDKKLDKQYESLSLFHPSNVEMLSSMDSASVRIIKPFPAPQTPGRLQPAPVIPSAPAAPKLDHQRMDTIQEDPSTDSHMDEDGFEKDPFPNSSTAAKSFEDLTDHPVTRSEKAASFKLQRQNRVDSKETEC", "assay": "co-IP with agarose-bound AvFc from A549 whole-cell lysate, mass spectrometry"}, "[29]": {"molecular_target": "Solute carrier family 2, facilitated glucose transporter member 1 (human) (UniProt P11166)", "assay": "co-IP with agarose-bound AvFc from A549 whole-cell lysate, mass spectrometry"}, "[30]": {"molecular_target": "Importin subunit beta-1 (human) (UniProt Q14974)", "assay": "co-IP with agarose-bound AvFc from A549 whole-cell lysate, mass spectrometry"}, "[31]": {"molecular_target": "Serpin H1 (human) (UniProt P50454)", "assay": "co-IP with agarose-bound AvFc from A549 whole-cell lysate, mass spectrometry"}, "[32]": {"molecular_target": "Insulin-like growth factor 1 receptor (human) (UniProt P08069)", "assay": "co-IP with agarose-bound AvFc from A549 whole-cell lysate, mass spectrometry"}, "[33]": {"molecular_target": "Polycystin-2 (human) (UniProt Q13563)", "assay": "co-IP with agarose-bound AvFc from A549 whole-cell lysate, mass spectrometry"}, "[34]": {"molecular_target": "Magnesium transporter protein 1 (human) (UniProt Q9H0U3)", "assay": "co-IP with agarose-bound AvFc from A549 whole-cell lysate, mass spectrometry"}, "[35]": {"molecular_target": "Adhesion G protein-coupled receptor L2 (human) (UniProt O95490)", "assay": "co-IP with agarose-bound AvFc from A549 whole-cell lysate, mass spectrometry"}, "[36]": {"molecular_target": "Laminin subunit alpha-5 (human) (UniProt O15230)", "assay": "co-IP with agarose-bound AvFc from A549 whole-cell lysate, mass spectrometry"}, "[37]": {"molecular_target": "Disintegrin and metalloproteinase domain-containing protein 9 (human) (UniProt Q13443)", "assay": "co-IP with agarose-bound AvFc from A549 whole-cell lysate, mass spectrometry"}, "[38]": {"molecular_target": "Solute carrier family 12 member 7 (human) (UniProt Q9Y666)", "assay": "co-IP with agarose-bound AvFc from A549 whole-cell lysate, mass spectrometry"}},
  "data": [
    {"substance": "Avaren-Fc (AvFc) (Fc fusion)", "values": [
      {"measurement": "Percentage of Total Spectra (%)", "setting": "[1]", "value": 0.025, "unit": "%"},
      {"measurement": "Percentage of Total Spectra (%)", "setting": "[2]", "value": 0.05, "unit": "%"},
      {"measurement": "Percentage of Total Spectra (%)", "setting": "[3]", "value": 0.83, "unit": "%"},
      {"measurement": "Percentage of Total Spectra (%)", "setting": "[4]", "value": 0.066, "unit": "%"},
      {"measurement": "Percentage of Total Spectra (%)", "setting": "[5]", "value": 0.025, "unit": "%"},
      {"measurement": "Percentage of Total Spectra (%)", "setting": "[6]", "value": 0.058, "unit": "%"},
      {"measurement": "Percentage of Total Spectra (%)", "setting": "[7]", "value": 0.066, "unit": "%"},
      {"measurement": "Percentage of Total Spectra (%)", "setting": "[8]", "value": 0.11, "unit": "%"},
      {"measurement": "Percentage of Total Spectra (%)", "setting": "[9]", "value": 0.17, "unit": "%"},
      {"measurement": "Percentage of Total Spectra (%)", "setting": "[10]", "value": 0.099, "unit": "%"},
      {"measurement": "Percentage of Total Spectra (%)", "setting": "[11]", "value": 0.35, "unit": "%"},
      {"measurement": "Percentage of Total Spectra (%)", "setting": "[12]", "value": 0.083, "unit": "%"},
      {"measurement": "Percentage of Total Spectra (%)", "setting": "[13]", "value": 0.13, "unit": "%"},
      {"measurement": "Percentage of Total Spectra (%)", "setting": "[14]", "value": 0.13, "unit": "%"},
      {"measurement": "Percentage of Total Spectra (%)", "setting": "[15]", "value": 0.091, "unit": "%"},
      {"measurement": "Percentage of Total Spectra (%)", "setting": "[16]", "value": 0.017, "unit": "%"},
      {"measurement": "Percentage of Total Spectra (%)", "setting": "[17]", "value": 0.083, "unit": "%"},
      {"measurement": "Percentage of Total Spectra (%)", "setting": "[18]", "value": 0.15, "unit": "%"},
      {"measurement": "Percentage of Total Spectra (%)", "setting": "[19]", "value": 0.31, "unit": "%"},
      {"measurement": "Percentage of Total Spectra (%)", "setting": "[20]", "value": 0.033, "unit": "%"},
      {"measurement": "Percentage of Total Spectra (%)", "setting": "[21]", "value": 0.15, "unit": "%"},
      {"measurement": "Percentage of Total Spectra (%)", "setting": "[22]", "value": 0.058, "unit": "%"},
      {"measurement": "Percentage of Total Spectra (%)", "setting": "[23]", "value": 0.091, "unit": "%"},
      {"measurement": "Percentage of Total Spectra (%)", "setting": "[24]", "value": 0.36, "unit": "%"},
      {"measurement": "Percentage of Total Spectra (%)", "setting": "[25]", "value": 0.098, "unit": "%"},
      {"measurement": "Percentage of Total Spectra (%)", "setting": "[26]", "value": 0.056, "unit": "%"},
      {"measurement": "Percentage of Total Spectra (%)", "setting": "[27]", "value": 0.028, "unit": "%"},
      {"measurement": "Percentage of Total Spectra (%)", "setting": "[28]", "value": 0.056, "unit": "%"},
      {"measurement": "Percentage of Total Spectra (%)", "setting": "[29]", "value": 0.007, "unit": "%"},
      {"measurement": "Percentage of Total Spectra (%)", "setting": "[30]", "value": 0.056, "unit": "%"},
      {"measurement": "Percentage of Total Spectra (%)", "setting": "[31]", "value": 0.063, "unit": "%"},
      {"measurement": "Percentage of Total Spectra (%)", "setting": "[32]", "value": 0.091, "unit": "%"},
      {"measurement": "Percentage of Total Spectra (%)", "setting": "[33]", "value": 0.17, "unit": "%"},
      {"measurement": "Percentage of Total Spectra (%)", "setting": "[34]", "value": 0.021, "unit": "%"},
      {"measurement": "Percentage of Total Spectra (%)", "setting": "[35]", "value": 0.091, "unit": "%"},
      {"measurement": "Percentage of Total Spectra (%)", "setting": "[36]", "value": 0.34, "unit": "%"},
      {"measurement": "Percentage of Total Spectra (%)", "setting": "[37]", "value": 0.11, "unit": "%"},
      {"measurement": "Percentage of Total Spectra (%)", "setting": "[38]", "value": 0.021, "unit": "%"}
    ]}
  ]
}
